Data published in the supplement of paper PMC10567573.

B1: MNAT1 (parent)
chain: LEEALYEYQPLQIETYGPHVPELE
B2: NR2F2 (parent)
chain: VAHVESLQEKSQCALEEYVRSQYP

Variants of: B1
Assay: protein stability index of a GFP-peptide fusion (GPS, HEK-293T) (PSI 1-6); higher = more stable
Details: c terminus: a fixed tail appended
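Note: lentivirally expressed fusions sorted by FACS into six bins by GFP to DsRed ratio, PSI derived from sequencing read proportions per bin multiplied by bin number.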

Protein stability index, by site and new letter:
E2: H 1.73 | V 2.55 | S 2.4 | Y 1.71 | R 3.28 | D 3.89 | T 2.2 | A 2.26 | G 2.24 | M 2.71 | I 2.67 | P 3.7 | N 2.4 | L 2.96 | F 1.71 | K 2.47 | W 2.34 | Q 1.71 | C 3.03
L11: A 4.06 | C 2.99 | F 4.11 | D 4.85 | E 4.77
L1: V 4.15 | M 3.18 | S 5.15 | Q 5.08 | G 5.15 | R 4.12 | I 3.45 | F 3.81 | W 4 | Y 4.45 | C 4.72 | P 4.88 | K 4.81 | N 4.72 | A 5.28 | E 5.1 | H 4.98 | T 5.14 | D 4.8
A4: R 4.81 | C 3.81 | T 4.27 | D 4.84 | N 4.61 | W 2.96 | H 4.59 | G 4.4 | L 3.57 | F 3.1 | K 4.33 | P 4.28 | Y 3.51 | V 1.91 | Q 4.89 | M 3.72 | I 2.88 | E 4.56 | S 4.67
Q9: F 2.13 | G 3.46 | Y 2.43 | M 2.74 | C 2.6 | D 4.67 | H 1.87 | K 2.68 | L 2.7 | V 3.84 | S 2.94 | N 2.59 | T 4.38 | P 5.02 | I 3.56 | E 4.38 | R 1.88 | A 2.86 | W 2.79
E3: A 2.43 | M 2.19 | T 3.16 | K 2.64 | Y 2.04 | H 3.16 | Q 3 | C 2.42 | P 4.05 | N 3.67 | R 2.79 | G 3.41 | V 1.74 | W 1.45 | I 2.13 | L 2 | F 3.39 | D 3.19 | S 3.63
Y6: E 2.74 | L 3.43 | Q 2.81 | R 2.27 | I 2.58 | C 2.61 | P 5.47 | F 2.8 | T 3.56 | W 2.39 | H 3.11 | D 4.36 | M 3 | G 3.43 | N 3.7 | V 3.33 | A 2.3 | K 2.46 | S 2.41
Y8: L 4.75 | S 5.53 | D 5.23 | N 5.74 | R 5.44 | T 5.38 | I 4.92 | W 3.59 | V 4.98 | K 5.14 | H 4.27 | P 5.25 | E 5.4 | A 5.3 | M 4.71 | G 5.41 | C 4.91 | Q 5.5 | F 3.75
P10: Q 4.43 | D 4.33 | K 4.53 | H 4.99 | S 4.05 | A 3.89 | L 3.32 | F 2.91 | M 3.85 | N 4.75 | G 4.24 | E 4.6 | C 3.27 | Y 3.09 | V 2.25 | W 2.63 | T 4.1 | R 4.01 | I 2.77
L5: E 4.58 | T 4.9 | M 4.64 | I 4.87 | D 5.12 | W 3.89 | F 4.33 | V 4.64 | Y 4.46 | K 5.06 | G 4.8 | C 4.71 | R 4.32 | P 5.19 | H 4.96 | A 4.97 | S 4.59 | N 4.81 | Q 5.38
E7: G 3.53 | N 2.73 | P 2.71 | F 1.87 | R 1.73 | I 2.44 | V 1.73 | D 3.92 | S 2.76 | C 1.92 | T 2.68 | L 2.25 | W 2.1 | Q 2.28 | A 2.19 | K 1.87 | Y 1.98 | H 2.11 | M 2.19

Variants of: B2
Assay: as above
Details: c terminus: a fixed tail appended

Protein stability index of substitutions, site by site:
S21: V 3.34 | G 3.67 | A 3.25 | M 3.33 | R 3.13 | F 2.56 | L 3.46 | P 4.04 | Y 2.89 | C 3.38 | D 3.77 | Q 3.53 | E 3.77 | K 3.15 | I 3.02 | W 2.24 | H 3.46 | N 3.92 | T 3.95
E17: S 3.36 | R 3.62 | Q 3.27 | Y 2.11 | W 2.11 | T 3.62 | V 2.26
Y18: T 4.42 | S 4.25 | H 4.2 | M 3.93 | P 4.43 | V 3.75 | N 3.91 | K 3.94 | F 3.33 | C 3.51 | A 3.97 | G 4.33 | I 3.55 | E 4.7 | L 3.01 | W 3.66 | R 4.26 | D 5.05
P24: Y 2.68 | T 3.5 | A 3.73 | D 4.29 | V 3.06 | Q 3.35 | H 3.33 | S 3.47 | W 2.45 | C 3.14 | M 3.22 | R 4.01 | L 3.15 | E 3.94 | N 3.94 | G 3.72 | F 2.62 | K 3.93 | I 3.19
Q22: D 4.15 | N 3.54 | S 3.4 | R 3.05 | T 3.27 | I 2.6 | F 2.44 | V 3.5 | P 3.3 | Y 3.34 | L 3.17 | G 3.82 | K 3.87 | M 2.87 | E 4.31 | A 3.63 | W 2.1 | C 3.19 | H 3.56
V19: T 3.67 | R 3.85 | M 3.65 | A 3.49 | K 4.04 | W 3.06 | E 5.1 | P 4.73 | F 3.34 | C 3.7 | H 4.24 | Q 4.03 | D 4.26 | G 3.39 | N 4.13 | L 3.17 | Y 3.56 | S 4.08 | I 3.63
Y23: C 4.13 | N 4.74 | I 3.9 | T 4.01 | G 4.14 | L 3.75 | W 2.7 | E 4.71 | M 3.46 | F 3.43 | R 4.51 | A 4.1 | S 4.36 | H 3.88 | D 4.53 | K 3.98 | V 3.76 | Q 4.25 | P 4.15
R20: M 3.19 | W 2.56 | G 4.17 | V 3.72 | Y 3.26 | S 3.65 | Q 4.3 | P 4.16 | C 3.87 | H 3.86 | N 3.14 | F 2.71 | E 4.51 | D 4.71 | A 3.49 | T 3.72 | K 4.18 | I 3.36 | L 2.67
